Experimental data as given in US20250381223A1 (UTC THERAPEUTICS SHANGHAI, published 2025).
Where “and” joins values, the source holds several entries; their conditions need not be identical. Equal values may be shown once.

T1: CD123-Fc recombinant protein (human, UniProt P26951 19-305)
T1 construct: construct not described; not shown: Fc part
T1 sequence (looked up): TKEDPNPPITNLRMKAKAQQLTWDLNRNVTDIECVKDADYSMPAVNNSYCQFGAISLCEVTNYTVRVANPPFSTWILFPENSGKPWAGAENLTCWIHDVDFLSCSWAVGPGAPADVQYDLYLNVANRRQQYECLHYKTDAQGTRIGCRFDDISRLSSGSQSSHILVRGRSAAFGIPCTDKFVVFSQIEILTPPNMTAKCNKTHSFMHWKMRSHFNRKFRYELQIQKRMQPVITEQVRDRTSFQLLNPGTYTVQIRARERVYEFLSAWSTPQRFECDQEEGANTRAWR


Key:
[1] = target: T2, recombinant human CD40-His antigen protein (human, UniProt P25942 21-193); test: ELISA; plate coated with CD40-His 2 µg/mL; IgG1, anti-human IgG-Fc (HRP)
T2 construct: Bought protein; also called recombinant CD40-His protein; CD40 antigen; not shown: His tag
Method: Therefore, the affinity of the CD40 antibody (in the form of a human classical monoclonal antibody IgG1) was detected by in vitro binding ELISA. The brief experimental procedures were as follows: [0569] (1) Construction of antibody expression plasmid: an antibody VH region was subcloned into a pEF vector containing a human CH1-Fc antibody fragment, and an antibody VL region was subcloned into a pEF vector containing a human CL antibody fragment. [0570] (2) Antibody expression: 33 μg of an antibody heavy chain expression plasmid and 67 μg of an antibody light chain expression plasmid were co-transfected into 293F suspension cells by PEI. After 4 days of culture, the supernatant was collected by centrifugation. [0571] (3) Antibody purification: the protein supernatant and protein A purification medium were incubated on ice for 2 h, and then the supernatant and the purification medium were separated by a gravity column. The purification medium was rinsed thoroughly with 100 mL of pre-cooled PBS to remove impure proteins, and finally, the target protein was eluted from the purification medium with 5-10 mL of 0.1 M Glycine-HCl (pH 2.7), and 1/10 volume of 1 M Tris-HCl (pH 9.0) was immediately added to neutralize the antibody. […] After the protein concentration was measured with A280, the antibody was packaged and cryopreserved at −80° C. […]

[2] = target: T1, CD123-Fc recombinant protein; test: flow cytometry of T cells electroporated with CAR mRNA, stained with CD123-Fc + PE-anti-hIgG-Fc
Method: (§1) The CD123 CAR mRNAs obtained in Example 35 above were each introduced into T cells by electroporation according to the following procedures: T cells were collected, washed with the Opti-MEM medium, and resuspended at 1×10e⁷/mL with the Opti-MEM medium; 10 μg of RNA and 100 μL of T cells were aliquoted, mixed well, and electroporated under the following parameters (BTX machine): 500 V, 0.7 ms; the cells were then transferred to a pre-warmed medium and cultured at 37° C. The binding of CD123 CART cells to the CD123-Fc recombinant protein was detected by FACS staining. […] Empty vector (Mock) was a control T cell without CAR molecule. A549 tumor cells were electroporated with different amounts of CD123 mRNA. The electroporation procedure was the same as described above, and only the parameters were changed, with the parameters 300 V, 0.5 ms used. CD123 expression in A549 tumor cells was detected by FACS staining of isotype or anti-CD123 antibodies and A549 cells electroporated with different amounts of CD123 mRNA. […] The cytotoxicity of CD123 CART cells against tumor cells was detected in an in vitro cytotoxicity assay. Tumor cells expressing EGFP or EGFP-A549 cells electroporated with different amounts of tumor antigen were seeded at 3000 cells/100 μL/well into a flat-bottom 96-well plate; CART cells were diluted to a proper concentration and seeded to the 100 μL/well tumor cells according to different E/T ratios (e.g., 10:1, 3:1, or 1:1), and the co-culture plate was placed into the IncuCyte S3 machine and scanning parameters were set. After scanning for 3 days, the total green object integrated intensity (GCU×μm²/well) was analyzed to calculate the killing efficiency.

[3] = target: T1, CD123-Fc recombinant protein; test: flow cytometry of T cells electroporated with CAR mRNA, stained with CD123-Fc + PE-anti-hIgG-Fc; Mock 0.36
Method: as §1

[4] = target: T1, CD123-Fc recombinant protein; test: flow cytometry of T cells electroporated with CAR mRNA, stained with CD123-Fc + PE-anti-hIgG-Fc; Mock 1.68
Method: as §1

[5] = target: T2, recombinant human CD40-His antigen …; test: ELISA; plate coated with CD40-His 2 µg/mL; HRP-anti-hFc
Method: The binding activities of the affinity-matured antibodies for antigen CD40 were detected by ELISA. The experimental procedures were as follows: [0637] 1. 50 μL of recombinant CD40-His protein at a concentration of 2 μg/mL was added to each well of an ELISA plate, and the plate was incubated at 4° C. overnight. […] 2. The next day, the ELISA plate was washed 3 times with PBST (containing 0.05% Tween-20). [0639] 3. 250 μL of 5% skim milk powder (dissolved in PBS) was added to each well of the ELISA plate, and the plate was incubated at room temperature for 2 h. [0640] 4. The plate was washed 3 times with PBST, antibodies with different dilution ratios were added to the ELISA plate at 50 μL/well, and the plate was incubated at room temperature for 60 min. [0641] 5. The plate was washed 3 times with PBST, 50 μL of HRP-anti-hFc antibody was added to each well, and the plate was incubated at room temperature for 60 min. [0642] 6. The plate was washed 3 times with PBST, 50 μL of TMB was added to each well, and after color development at room temperature, 50 μL of 2 M HCl was added to each well to stop the reaction. The plate was read at 450 nm.

binding result [2] | EC50 [5] | Binder | also measured
no binding | – | C22 (scFv, also called anti-CD123 scFv-C22) scFv: SYELTQPPSVSVAPGKTARITCGANNIETKSVHWYRQRPGQAPILVIYYDSDRPSGIPERFSGSTSGDTATLTISRVEAEDEADYYCQVWDSTSDHVVFGEGTKLTVLGGGGSGGGGSGGGGSEVQLVESGAEVKKPGESLKISCKGSGYSFTSYWIGWVRQMPGKGLEWMGIINPSGGSTSYAQKFQGRVTMTRDTSTSTVYMELSSLRSEDTAVYYCARVVTPYYPLTNWGQGTLVTVSS | percent of cells in the CD123-Fc positive gate [3]: 0.53%
no binding | – | C31 (scFv, also called anti-CD123 scFv-C31) scFv: QPVLTQPPSMSGTPGQRVTISCSGGNSNIGDNSVSWYQQLPGTAPKLLIYNNNQRPLGVPDRFSGSKSGTSASLAIRGLQSEDEAHYYCSSWDDSLEGAQFGGGTKVTVLGGGGSGGGGSGGGGSEVQLVESGGGLVKPGGSLRLSCAASGFTFSDYYMSWIRQAPGKGLEWVSYISSSGSTIYYADSVKGRFTISRDNAKNSLYLQMNSLRAEDTAVYYCARGHQYYDFWSGYSNWFDPWGQGTLVTVSS | percent of cells in the CD123-Fc positive gate [3]: 0.64%
– | 0.124 mg/L | 4052.12 (antibody, V domains shown) VH: QVQLVQSGAEVKKPGSSVKVSCKASGGTFSSYAVSWVRQAPGQGLEWMGMINPSGGTTSYAQKFQGRVTMTRDTSTSTVYMELSSLRPEDTAVYYCARGFRMDQWGQGTLVTVSS VL: QSALTQPPSASGSPGQSVTISCTGTSSDVGAYNFVSWYQQHPGNAPKLIIYDVRKRPRGIPDRFSASKSGNTASLTVSGLQADDEADYYCSSYAGNNNLVFGGGTKLTVL | –
– | 0.134 mg/L | 4052.36 (antibody, V domains shown) VH: QVQLVQSGAQVKKPGSSVKVSCKASGGTFSSYAISWVRQAPGQGLEWMGMINPSGGTTSYAQKFQGRVTMTRDTSTSTVYMELSSLRPEDTAVYYCARGFRMDQWGQGTLVTVSS VL: QSALTQPPSASGSPGQSVTISCTGTSSDVGAYNFVSWYQQHPGNAPKLIIYDVRKRPIGIPDRFSASKSGNTASLTVSGLQADDEADYYCSSYAGNNNLVFGGGTKLTVL | –

The next lines start with the binder.

Binder | binding result [2] | EC50 [5] | also measured
F2.103 (antibody, V domains shown) VH: EVQLVESGGGLVQPGGSLRLSCAVSGFTFSTYWMHWVRQAPGKGLVWVSRINSDGSSTTYADSVKGRFTISRDNAKNTLYLQMNSLRAEDTAVYYCARDRVLWIGELSYYGMDVWGQGTTVTVSS VL: DIQMTQSPSTLSASVGDRVTITCRASQSISNWLAWYQQKPGKAPKLLLYKASGLESGVPSRFSGSGSGTEFTLTINSLQPDDFATYYCQQSNSYSWTFGHGTKVEIKR | – | – | EC50 [1]: 0.0448 µg/mL and 305 nM
C12 (scFv, also called anti-CD123 scFv-C12) scFv: QSVLTQPPSVSAAPGQKVTISCSGSSSNIGNNYVSWYQQLPGTAPKLLIFDDNKRPSGIPDRFSGSLSGTSASLAISGLQSEDDADYYCSAWDDSLSGYVFGTGTKLTVLGGGGSGGGGSGGGGSQVQLVQSGGGLVKPGGSLRLSCAASGFTFSSYNINWVRQAPGKGPEWVSSISSSSSYRYYADSVKGRFTISRDNAKNSLYLQMNSLRAEDTAVYYCVRDKTGGYGTAFDYWGQGTLVTVSS | no binding | – | percent of cells in the CD123-Fc positive gate [4]: 1.37%
4052.25 (antibody, V domains shown) VH: QVQLVQSGAEVKKPGSSVKVSCKASGGTFSSYAISWVRQAPGQGLEWMGMINPSGGTTSYAQKFQGRVTMTRDTSTSTVYMELSSLRPEDTAVYYCARGFRMDQWGQGTLVTVSS VL: QSALTQPPSASGSPGQSVTISCTGTSSDVGAYNFVSWYQQHPGNAPKLIIYDVRKRPSGIPDRFSASKSGNTASLTVSGLQADDEADYYCSSYAGNNRLVFGGGTKLTVL | – | 0.111 mg/L | –
4052.28 (antibody, V domains shown) VH: QVQLVQSGAEVKKPGSSVKVSCKASGGTFSSYAISWVRQAPGQGLEWMGMINPSGGTTSYAQKFQGRVTMTRDTSTSTVYMELSSLRPEDTAVYYCARGFRMDQWGQGTLVTVSS VL: QSALTQPPSASGSPGQSVTISCTGTSSDVGAYNFVSWYQQHPGNAPKLIIYDTRKRPSGIPDRFSASKSGNTASLTVSGLQADDEADYYCSSYAGNNNLVFGGGTKLTVL | – | 0.116 mg/L | –
